From patent publication US20140127200A1 come the findings set out here.

The experiment addresses HER2 expressed on the surface of breast carcinoma cells (BT-474; SK-BR-3) (human) (UniProt P04626). Put plainly: cell-based or functional assay.

Substance “HER-con4(H) (…® with the 2xcon4 MRD fused to the heavy chain) (bispecific antibody)” displayed an ADCC on SK-BR-3 cells with human PBMCs (specific release), IC50 of 0.067 nM.
